Assay results from the supplement of paper PMC12764529.
± gives the half width of the 95% confidence interval.

How the values were obtained:
[1] = folding stability dG unfold (combined trypsin and chymotrypsin); higher = more stable
In short: (§1)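 Mini-proteins designed to be under 80 residues and free of cysteine were carried in a PA-tagged cDNA display construct and digested with trypsin and with chymotrypsin. Each protease was applied at 11 threefold-diluted concentrations, alongside a no-protease condition, before sequencing. K50 came from Bayesian fitting of the sequencing counts, and unfolding free energy was obtained by comparing it with a sequence-predicted unfolded-state K50 and a shared folded-state K50, for each protease separately or for both together. Designs were retained only if their AlphaFold2 dimer inter-PAE exceeded 15.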

[2] = folding stability dG unfold from trypsin proteolysis; higher = more stable
In short: as §1

[3] = folding stability dG unfold from chymotrypsin proteolysis; higher = more stable
In short: as §1

Sequence	folding stability dG unfold [1] [kcal/mol]	folding stability dG unfold [2] [kcal/mol]	folding stability dG unfold [3] [kcal/mol]
SAGGSAGGSAGGGSTTTTTETYPENGLIFTTTTTVFDDGSLSVTTTTSPLPLPPSPFIATSAGGSAGGSAGG [r7_103_JUSTAS]	1.05 ± 0.18	1.29 ± 0.043	0.394 ± 0.18
SAGGSAGGSAGGGSVTIRVESPEEAVATAKELLEKLTGAKPEATPLNVVVEEPDGVATVESAGGSAGGSAGG [r7_387_JUSTAS]	0.378 ± 0.13	1.03 ± 0.058	-0.721 ± 0.18
SAGGSAGGSAGGGSVVTTETSVSPNGVVTTTTTTTFLDPDGNPLGTTTTTTAHAAPPTTSAGGSAGGSAGGS [r10_403_JUSTAS]	2.12 ± 0.024	2.58 ± 0.076	1.8 ± 0.031
SAGGSAGGSAGGGTVTLEIELKVKPGEKIKDLATGEEFEVKEGETVRIRITLPLPPAPEESAGGSAGGSAGG [r7_234_TrROS_Hall]	1.2 ± 0.17	0.963 ± 0.068	1.11 ± 0.078
SAGGSAGGSAGGGVGIAEISFDPETQTVTIKAYNPETEEITEITIPVTNPLPLDLSDITSAGGSAGGSAGGS [r10_331_TrMRF]	0.725 ± 0.2	0.477 ± 0.085	0.858 ± 0.14
SAGGSAGGSAGGGVKYRVLLPKDVNPEKAAELLKPYGVKVVSIEEVEEGFYLIEVEKPESAGGSAGGSAGGS [r10_591_TrMRF]	1.49 ± 0.13	1.18 ± 0.032	1.59 ± 0.13
SAGGSAGGSAGGGVTLPTGDIVVPVEYTTTVPVLTYNPTLGVSYFFTLTVTTSSTVYVGLSAGGSAGGSAGG [r7_374_JUSTAS]	3.37 ± 0.082	2.71 ± 0.057	3.868 ± 0.026
SAGGSAGGSAGGGWAEIEIKITIFVFDPGNMTLFMVTLEPRIEVPPVKRDPDNGKWKPDSAGGSAGGSAGGS [r10_815_TrROS]	3.81 ± 0.42	2.86 ± 0.23	3.92 ± 0.21
SAGGSAGGSAGGIEKFLEKHPELKIKKEIKIKIPYKTKDGKEFEVEYKIFYLTSEDEEDSAGGSAGGSAGGS [r10_0_TrMRF]	2.36 ± 0.07	1.39 ± 0.05	2.74 ± 0.057
SAGGSAGGSAGGIGDDGKVRVALLDKNGKVLGPVYVTKVEEGKIEVEAEPDYTLVLNLESAGGSAGGSAGGS [r10_1257_TrMRF]	0.329 ± 0.15	-0.0768 ± 0.11	0.487 ± 0.12
SAGGSAGGSAGGIIIPPGAKIVSIEKEGDFVKIKVYIPGSKKIETFKFPKGVPIIFEPEASAGGSAGGSAGG [r11_774_TrMRF]	3.41 ± 0.15	3.51 ± 0.28	3.24 ± 0.075
SAGGSAGGSAGGIKITPDIRELLRQQGKPFSEEEIQGIAKYIAKHFKEKGFEDVTIRIPWSAGGSAGGSAGG [r7_512_TrROS]	0.774 ± 0.14	0.471 ± 0.17	0.783 ± 0.2
SAGGSAGGSAGGIRIEFPGMKFEIDEFDPPNGVITLRFPENGQELQIKFDSDGEITKITWSAGGSAGGSAGG [r7_553_TrROS]	2.25 ± 0.28	2.05 ± 0.2	1.94 ± 0.14
SAGGSAGGSAGGIWITMRPDNPDEFIDALRKKGKIRIVEVEPKNGNVIMRVTLDGQPLTSAGGSAGGSAGGS [r10_695_TrROS]	0.368 ± 0.088	0.0442 ± 0.14	0.53 ± 0.11
SAGGSAGGSAGGKATLGEDGFLVIEREVELPDGPYRPETLVIPLPELTPEEVERLLETESAGGSAGGSAGGS [r10_1096_TrMRF]	1.05 ± 0.096	1.24 ± 0.13	0.919 ± 0.044
SAGGSAGGSAGGKDGYYKAIIELPGGEKREIVFKYEDFEEALKSLGIPLENVKIVKIEEGSAGGSAGGSAGG [r7_211_TrMRF]	3.48 ± 0.18	3.3 ± 0.2	3.49 ± 0.11
SAGGSAGGSAGGKEYKLVKVKVKVEITLPKGSELLKKLGLSEEDVKFEFELEVVVLVKPSAGGSAGGSAGGS [r10_82_TrROS_Hall]	3.68 ± 0.23	2.82 ± 0.21	3.93 ± 0.074
SAGGSAGGSAGGKIEIKTFPDGYVLAKIEFPDEDKALVILAKVKPNPGKVLEAIIRPADSAGGSAGGSAGGS [r10_613_TrMRF]	1.38 ± 0.097	1.2 ± 0.025	1.51 ± 0.062

Sequence	folding stability dG unfold [1] [kcal/mol]	folding stability dG unfold [2] [kcal/mol]	folding stability dG unfold [3] [kcal/mol]
SAGGSAGGSAGGKIENWKITKVETKLHPNGFPYLVIELSNEKKKIRVLIYPNGELKAFEESAGGSAGGSAGG [r7_675_TrMRF]	3.82 ± 0.31	2.8 ± 0.42	4.07 ± 0.21
SAGGSAGGSAGGKIIHPDLKKPLDVLEKFELIIGGKPYLFFLSRGEGELRLLVIPAGKESAGGSAGGSAGGS [r10_517_TrMRF]	2.15 ± 0.048	1.54 ± 0.021	2.53 ± 0.055
SAGGSAGGSAGGKIYYLDKDLFVIDLPDPKTGKPIKIAIGGDPNRPDEILKLAKELAESSAGGSAGGSAGGS [r10_379_TrMRF]	-0.0301 ± 0.2	0.0383 ± 0.039	-0.398 ± 0.26
SAGGSAGGSAGGKKIEIEFTVKILREPEPGELVPYEVKGKLEINIDPDGNLKIELKFEPGSAGGSAGGSAGG [r11_607_TrMRF]	3.06 ± 0.15	2.81 ± 0.11	3.26 ± 0.073
SAGGSAGGSAGGKKIIKVPLKNAEKIKKELKKKYKIKKVKIEKNKDGSKYIYIEVEKPKSAGGSAGGSAGGS [r10_1219_TrROS_Hall]	1.5 ± 0.23	0.939 ± 0.071	1.69 ± 0.16
SAGGSAGGSAGGKKIKIKINSPGNAEEVKKLLEPFGLEVDSIKENKNNPNLIIVEVNVESAGGSAGGSAGGS [r10_104_TrMRF]	0.242 ± 0.11	-0.276 ± 0.11	0.563 ± 0.031
SAGGSAGGSAGGKKIRFYFPNGNPVELTEILDVDPEDKWARIDVEHNGKKHKHPMPADDLSAGGSAGGSAGG [r7_236_TrROS]	< -1	-1.36 ± 0.68	-1.19 ± 0.39
SAGGSAGGSAGGKKIRIVVPKENLEKIEELAKKLGPDVKIVKVEYFKETDYVVVEVEVKSAGGSAGGSAGGS [r10_23_TrROS_Hall]	2.11 ± 0.086	2.16 ± 0.06	1.98 ± 0.075
SAGGSAGGSAGGKKKKVIEIELKPGEKLTLEQIKEIAKKLNVKKVKVEKVDGKLKIVVESAGGSAGGSAGGS [r10_642_TrROS_Hall]	0.815 ± 0.16	0.502 ± 0.057	0.892 ± 0.065
SAGGSAGGSAGGKKPKVKVIKLTLTVTKLTEKDGKLTLEKKTITLTAVIDPETGKIHLLSAGGSAGGSAGGS [r10_533_TrROS_Hall]	3.5 ± 0.16	3.2 ± 0.14	3.5 ± 0.089
SAGGSAGGSAGGKKPVKITEIHRNPGPNWIRIRIPGNGRPIPIPVPPGKKLTLEDALDFSAGGSAGGSAGGS [r10_844_TrROS]	-0.304 ± 0.19	-0.648 ± 0.38	-0.0211 ± 0.29
SAGGSAGGSAGGKKTITVPVKIEEVDGKFRITLPDGKVIEFPPGAKVEEKDGLLTIELESAGGSAGGSAGGS [r10_305_TrROS_Hall]	1.14 ± 0.11	0.932 ± 0.025	1.13 ± 0.078
SAGGSAGGSAGGKKTIVIEINGKKYTITRIEFDKDTKKITIEIEFNGKKLKIEIELPKNLSAGGSAGGSAGG [r7_477_TrROS_Hall]	3.11 ± 0.27	2.17 ± 0.078	3.31 ± 0.16
SAGGSAGGSAGGKKTYVKKIVTEKKKVKLFFYDKKTGELLEEKEVEVIKTKIYVTKPDEFSAGGSAGGSAGG [r7_573_TrMRF]	0.868 ± 0.26	0.479 ± 0.13	0.884 ± 0.31
SAGGSAGGSAGGKKVILIRGLTPEEIEALAKELEELFPDLKVTIERLPGEEGTLLITVDSAGGSAGGSAGGS [r10_852_TrROS_Hall]	2.38 ± 0.14	2.92 ± 0.17	1.91 ± 0.1
SAGGSAGGSAGGKKVKVIKVSVTYDPKTKKLTIKVEKTGKTYTIPLKEIELVNGYLKIKSAGGSAGGSAGGS [r10_942_TrROS_Hall]	2.21 ± 0.34	1.78 ± 0.11	2.45 ± 0.11
SAGGSAGGSAGGKKVKVLTLTIELEVKDSNGKKYKVKATVTLIYDEKTKKLYLNISIEPSAGGSAGGSAGGS [r10_795_TrROS_Hall]	4.85 ± 0.31	3.95 ± 0.39	5.05 ± 0.19
